Measured values as given in publication PMC4313936, “N-Terminal and C-Terminal Domains of Calmodulin Mediate FADD and TRADD Interaction” (PLoS ONE, 2015).

Target: T1, His-CaM (native, Xenopus laevis) (Xenopus laevis, UniProt P0DP33 1-149)
T1 construct: calmodulin, Xenopus laevis, plasmid pET-15b-CaM [41]; also called native untreated CaM; recombinant His-CaM; source: E. coli BL21 (DE3), purified as previously described [8]
Experiment: pull-down; GST proteins (5 μg) bound to glutathione-sepharose beads incubated with soluble recombinant CaM proteins (His-CaM forms, no-tagged wild-type CaM, Met-to-Leu mutants); 10 mM potassium phosphate pH 7.0, 100 mM KCl, 1% Brij; 2 mM Ca2+ or EGTA in Fig. 2E; western blot with CaM antibody
Settings: both partners purified

B1: GST-TRADD R235A (natural protein)
chain: MAAGQNGHEEWVGSAYLFVESSLDKVVLSDAYAHPQQKVAVYRALQAALAESGGSPDVLQMLKIHRSDPQLIVQLRFCGRQPCGRFLRAYREGALRAALQRSLAAALAQHSVPLQLELRAGAERLDALLADEERCLSCILAQQPDRLRDEELAELEDALRNLKCGSGARGGDGEVASAPLQPPVPSLSEVKPPPPPPPAQTFLFQGQPVVNRPLSLKDQQTFARSVGLKWRKVGASLQRGCRALRDPALDSLAYEYEREGLYEQAFQLLRRFVQAEGRRATLQRLVEALEENELTSLAEDLLGLTDPNGGLA
notes: TRADD, human, point mutant of GST-TRADD; also called R235A TRADD mutant; source: E. coli BL21 (DE3)
- binding result: binds
